Measured values taken from doi:10.1101/359182, “Capturing auxin response factors syntax using DNA binding models”.

Molecular target: T1, MP (ARF5/Monopteros) (UniProt P93024 1-902)
T1 sequence: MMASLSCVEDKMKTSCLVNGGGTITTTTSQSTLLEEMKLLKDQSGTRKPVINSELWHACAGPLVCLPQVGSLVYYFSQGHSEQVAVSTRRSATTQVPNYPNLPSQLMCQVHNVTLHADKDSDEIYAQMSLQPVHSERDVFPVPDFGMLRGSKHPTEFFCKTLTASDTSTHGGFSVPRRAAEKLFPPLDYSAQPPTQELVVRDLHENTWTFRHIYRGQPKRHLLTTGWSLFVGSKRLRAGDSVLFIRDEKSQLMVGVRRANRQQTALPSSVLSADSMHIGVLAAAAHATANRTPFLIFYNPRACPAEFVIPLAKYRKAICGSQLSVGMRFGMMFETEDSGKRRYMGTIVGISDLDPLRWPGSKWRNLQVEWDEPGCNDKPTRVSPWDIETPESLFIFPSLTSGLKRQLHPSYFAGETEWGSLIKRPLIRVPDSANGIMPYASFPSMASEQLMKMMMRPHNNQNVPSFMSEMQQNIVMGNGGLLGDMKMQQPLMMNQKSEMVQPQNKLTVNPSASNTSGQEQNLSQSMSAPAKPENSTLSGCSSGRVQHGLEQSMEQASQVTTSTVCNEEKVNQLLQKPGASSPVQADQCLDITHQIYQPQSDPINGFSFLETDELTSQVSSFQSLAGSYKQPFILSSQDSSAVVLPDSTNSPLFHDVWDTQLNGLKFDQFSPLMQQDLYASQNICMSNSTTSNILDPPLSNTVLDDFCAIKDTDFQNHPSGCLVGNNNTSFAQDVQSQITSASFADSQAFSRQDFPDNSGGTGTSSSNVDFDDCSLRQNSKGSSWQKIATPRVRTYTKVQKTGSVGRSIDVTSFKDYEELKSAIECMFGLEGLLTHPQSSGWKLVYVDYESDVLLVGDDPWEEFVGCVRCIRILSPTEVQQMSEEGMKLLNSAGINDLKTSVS
Assay: EMSA; EMSA: 25 mM HEPES pH 7.4, 1 mM EDTA, 2 mM MgCl2, 100 mM KCl, 10% glycerol, 1 mM DTT, 0.5 mM PMSF, 0.1% Triton, 0.045 mg/ml salmon/herring DNA, 20 nM probe, protein 0-500 nM, 1 h at 4 C, 2% agarose in 0.5x TBE
Conditions: protein: recombinant; tags: N-terminal His-MBP-His; label: Cy5-dCTP, Klenow fill-in opposite 5' G; blunt after fill-in of 5' G overhang

B1: IR13 (dsDNA)
DNA 1: GATGCAGCCGACAAAACACATGATTTTGTCGGCTCACAT
DNA 2: ATGTGAGCCGACAAAATCATGTGTTTTGTCGGCTGCATC
binding result: binds
